Here are results for one substance from patent US20090048164A1.

Experiment [1] addresses A1. Kind of experiment: Biacore competition vs immobilised BimBH3. (In general: In SPR one partner is held on a chip, and binding of the other changes the refractive index at the surface.)
In experiment [2] the target is mouse Mcl-1 with truncations of 151 amino acid residues at its N-terminus and 23 residues at its C-terminus (mouse) (UniProt P97287). Kind of experiment: Biacore competition vs immobilised BimBH3.
mouse Mcl-1 with truncations of 151 amino acid residues at its N-terminus and 23 residues at its C-terminus (mouse), sequence (P97287 152-308): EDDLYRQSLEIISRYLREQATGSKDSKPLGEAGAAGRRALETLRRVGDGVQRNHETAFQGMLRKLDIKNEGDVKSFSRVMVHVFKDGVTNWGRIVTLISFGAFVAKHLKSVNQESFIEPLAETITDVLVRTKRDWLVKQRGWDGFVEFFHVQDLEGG
Experiment [3] deals with Bcl-2. Kind of experiment: Biacore competition vs immobilised BimBH3.
Bcl-2, sequence (P10415 1-217): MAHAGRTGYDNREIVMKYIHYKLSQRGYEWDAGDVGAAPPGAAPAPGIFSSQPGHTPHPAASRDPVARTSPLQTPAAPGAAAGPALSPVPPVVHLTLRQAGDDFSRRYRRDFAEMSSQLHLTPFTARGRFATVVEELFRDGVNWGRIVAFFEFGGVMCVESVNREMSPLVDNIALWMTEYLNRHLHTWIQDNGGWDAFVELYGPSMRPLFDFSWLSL
Experiment [4] addresses Bcl-w. Kind of experiment: Biacore competition vs immobilised BimBH3.
The target in experiment [5] is A1. Kind of experiment: Biacore competition, synthetic peptides; against wild-type BimBH3 peptide.
Experiment [6] has as its target mouse Mcl-1 with truncations of 151 amino acid residues at its N-terminus and 23 residues at its C-terminus (mouse) (UniProt P97287). The experiment is described as above.
Experiment [7] has as its target Bcl-2. The description is as above.
The target in experiment [8] is Recombinant human Bcl-xL with a 25 amino acid truncation of its C-terminus (human) (UniProt Q07817). The experiment is described as above.
Recombinant human Bcl-xL with a 25 amino acid truncation of its C-terminus (human), sequence (Q07817 1-208): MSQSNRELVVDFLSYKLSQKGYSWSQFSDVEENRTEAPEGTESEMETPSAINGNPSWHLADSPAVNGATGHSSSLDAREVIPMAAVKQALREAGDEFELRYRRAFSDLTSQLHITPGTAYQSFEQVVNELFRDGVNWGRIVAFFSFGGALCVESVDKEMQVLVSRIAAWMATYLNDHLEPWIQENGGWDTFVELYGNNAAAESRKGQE
Experiment [9] addresses Bcl-w. The experiment is described as above.

Bcl-w, sequence (Q92843 1-164): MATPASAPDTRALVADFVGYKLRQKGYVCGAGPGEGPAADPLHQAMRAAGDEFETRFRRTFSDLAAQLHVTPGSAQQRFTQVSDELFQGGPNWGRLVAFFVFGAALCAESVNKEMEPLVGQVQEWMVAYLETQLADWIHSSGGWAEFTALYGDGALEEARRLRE

For BimBH3 F19A synthetic peptide, the Fold/wt BimBH3 with A1 [1] stood at 1 fold; in experiment [2], 1 fold; in the experiment with Bcl-2 [3], 3 fold; in the experiment with Bcl-w [4] it was 8 fold. The fold decrease in binding affinity with A1 [5] is less than 3 fold; in [6] it was less than 3 fold; in the experiment with Bcl-2 [7], less than 3 fold; in [8] it was less than 3 fold; in the experiment with Bcl-w [9], 8 fold.
